Measured values from patent US20210079074A1 (Alector, published 2021).
Where a chain is given by its changes, count along the chain named.

T1: FcγRIIa receptor (H131 variant) (UniProt P12318 34-317, limits assumed)
T1 sequence (looked up): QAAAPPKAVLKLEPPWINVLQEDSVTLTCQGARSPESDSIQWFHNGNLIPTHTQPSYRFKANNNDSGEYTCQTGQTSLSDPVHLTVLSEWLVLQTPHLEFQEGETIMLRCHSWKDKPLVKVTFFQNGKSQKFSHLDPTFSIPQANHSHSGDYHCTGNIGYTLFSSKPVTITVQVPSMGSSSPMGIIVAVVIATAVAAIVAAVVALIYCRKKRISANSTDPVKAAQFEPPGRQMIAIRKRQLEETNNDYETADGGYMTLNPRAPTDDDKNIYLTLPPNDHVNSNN

B1: anti-MS4A4A antibody 4A-302 (antibody, human IgG1, V domains shown)
VH: QVQLVQSGAEVKKPGASVKVSCKASGYTFTNYWMQWVRQAPGQGLEWMGATHPGHGDTRYAQKFQGRVTMTRDTSTSTVYMELSSLRSEDTAVYYCAREEVYYGFRSYWYFDVWGRGTLVTVSS
VL: EIVLTQSPATLSLSPGERATLSCRASESVDNYGVSFMNWYQQKPGQAPRLLIYGASNQGSGIPARFSGSGSGTDFTLTISSLEPEDFAVYYCQQSKEVPPTFGGGTKVEIK
notes: human IgG1/kappa
B2: anti-MS4A4A antibody 4A-332 (antibody, human IgG1, V domains shown)
VH: QVQLVQSGSELKKPGASVKVSCKASGYIFTSYGLSWVRQAPGQGLEWMGWINTYSGVPTYAQGFTGRFVFSLDTSVSTAYLQISSLKAEDTAVYYCARSLVDYWGQGTLVTVSS
VL: DVVMTQSPLSLPVTLGQPASISCKSSQSLLYSDGKTYLSWFQQRPGQSPRRLIYLVSKLDSGVPDRFSGSGSGTDFTLKISRVEAEDVGVYYCWQGIDFHQTFGGGTKVEIK
notes: humanized 4A-21; human IgG1/kappa
B3: anti-MS4A4A antibody 4A-313 wildtype (WT) huIgG1 (antibody)
heavy: not shown
light: EIVLTQSPATLSLSPGERATLSCRASESVDNYGVSRMNWYQQKPGQAPRLLIYGASNQGSGIPARFSGSGSGTDFTLTISSLEPEDFAVYYCQQSKEVPPTFGGGTKVEIKRTVAAPSVFIFPPSDEQLKSGTASVVCLLNNFYPREAKVQWKVDNALQSGNSQESVTEQDSKDSTYSLSSTLTLSKADYEKHKVYACEVTHQGLSSPVTKSFNRGEC
notes: also called 4A-313 WT huIgG1; 4A-313.WT
B4: anti-MS4A4A antibody 4A-314 (antibody, V domains shown)
VH: B1 VH with A50T, H52L
VL: B1 VL with F36R
notes: full human IgG
B5: anti-MS4A4A antibody 4A-312 (antibody, V domains shown)
VH: B1 VH with Y102D
VL: B1 VL with G59Q
notes: full human IgG
B6: anti-MS4A4A antibody 4A-376 (antibody, V domains shown)
VH: B2 VH with L100M, V101A
VL: B2 VL with Q27R
notes: full human IgG
B7: anti-MS4A4A antibody 4A-378 (antibody, V domains shown)
VH: B2 VH with L100M, V101A
VL: B2 VL with Q27R, D33E
B8: anti-MS4A4A antibody 4A-356 (antibody, V domains shown)
VH: B2 VH with S99T, V101A
VL: B2 VL with Q27R, D33Q
notes: full human IgG
B9: anti-MS4A4A antibody 4A-379 (antibody, V domains shown)
VH: B2 VH with L100M, V101A
VL: B2 VL with Q27R, D33A
B10: anti-MS4A4A antibody 4A-377 (antibody, V domains shown)
VH: B2 VH with L100M, V101A
VL: B2 VL with Q27R, D33G
notes: full human IgG
B11: anti-MS4A4A antibody 4A-380 (antibody, V domains shown)
VH: B2 VH with L100M, V101A
VL: B2 VL with Q27R, D33S
B12: anti-MS4A4A antibody 4A-381 (antibody, V domains shown)
VH: B2 VH with L100M, V101A
VL: B2 VL with Q27R, D33Q
B13: anti-MS4A4A antibody 4A-351 (antibody, V domains shown)
VH: B2 VH with S99T, V101A
VL: B2 VL with Q27R
notes: full human IgG
B14: anti-MS4A4A antibody 4A-350 (antibody, V domains shown)
VH: B2 VH with S99T, V101A
VL: B2 VL
notes: full human IgG
B15: anti-MS4A4A antibody 4A-360 (antibody, V domains shown)
VH: B2 VH with S99T, V101A
VL: B2 VL with S26G, K58R
notes: full human IgG
B16: anti-MS4A4A antibody 4A-362 (antibody, V domains shown)
VH: B2 VH with S99T, V101A
VL: B2 VL with K58R
notes: full human IgG
B17: anti-MS4A4A antibody 4A-369 (antibody, V domains shown)
VH: B2 VH with I28T, V37I, S99T, L100M
VL: B2 VL with D98R
notes: full human IgG
B18: anti-MS4A4A antibody 4A-358 (antibody, V domains shown)
VH: B2 VH with S99T, V101A
VL: B2 VL with D98R
notes: full human IgG
B19: anti-MS4A4A antibody 4A-373 (antibody, V domains shown)
VH: B2 VH with S99T
VL: B2 VL with Q27R
notes: full human IgG

biological target: T2, human MS4A4A (human, UniProt Q96JQ5 1-239); assay: FACS, U937-huMS4A4A, 5 ug/ml
Description: (§1) Anti-MS4A4A antibodies tested were either mouse IgGs purified from hybridoma supernatant or human IgG1 Fc chimeras produced recombinantly in Expi293 cells. Affinity binding to cells was determined as follows. Briefly, cells were harvested, washed, and labeled with Aqua Live/Dead for viability discrimination. After a wash with PBS, 2×10\hat{ }4 cells were aliquoted per well in 96-well U-bottom plates and incubated with 50 μL of purified anti-MS4A4A antibody at various concentrations (3× dilutions starting at 10 μg/mL) in FACS buffer (PBS+2% FBS+1 mM EDTA). After this primary incubation, the supernatant was removed via centrifugation, washed 2× with 150 μL of ice-cold FACS buffer, and incubated with the appropriate secondary antibody on ice for 15 minutes. Following the secondary antibody incubation, the cells were again washed 2× with ice-cold FACS buffer and resuspended in a final volume of 200 μL of FACS buffer. Flow cytometry analysis was performed on a FACSCanto system (BD Biosciences). Binding data was expressed as Median Fluorescent Intensity (MFI).
(§2) These experiments were performed using anti-MS4A4A antibodies at a concentration of 5 μg/ml and were assayed for cell binding by flow cytometry.

Binder | MFI
B1 | 113
B2 | 324

biological target: T3, recombinant MS4A4A soluble polypeptide JS5; assay: ELISA, 0.11 ug/ml antibody
T3 construct: also called JS5.His
Description: (§3) Anti-MS4A4A antibodies of the present disclosure were tested for their ability to bind to the different recombinant MS4A4A soluble polypeptides, as described in Example 2, as follows. Nucleic acid encoding the VH and VL domains of humanized anti-MS4A4A antibodies of the present disclosure were cloned into pcDNA3.4 vector which contains either the human IgG1 heavy chain constant domain or human kappa constant domain. The humanized anti-MS4A4A antibodies were expressed in Expi293 cells and were purified by Mab select antibody purification resin (GE Healthcare Life Science, cat#17519902) following the manufacture's protocol. ELISA was performed to measure binding of anti-MS4A4A antibodies of the present disclosure the recombinant MS4A4A soluble polypeptides. 1 μg/ml biotinylated antigens were preincubated on the streptavidin-coated ELISA plates (Thermo Scientific, cat#PI15120) for 1 hour. Plates were washed 3 times, followed by the addition of antibodies (1 μg/ml, 0.33 μg/ml, and 0.11 μg/ml antibodies. Plates were incubated at room temperature with shaking for 1 hr, washed 3 times, then 1/2500 dilution of HRP conjugates goat anti human kappa antibodies added (SigmaAldrich cat#. A7164-1ML).

Binder | ELISA OD
B3 | 0.741
B1 | 0.091
B4 | 0.399
B5 | 0.097
B6 | 0.83
B7 | 0.636
B8 | 0.746
B9 | 0.543
B2 | 0.677
B10 | 0.577
B11 | 0.654
B12 | 0.685
B13 | 0.816

biological target: T1, FcγRIIa receptor (H131 variant); assay: cell-based or functional assay

Binder | luminescence, ADCP reporter, 3.048316 ng/mL | luminescence, ADCP reporter, 9.144947 ng/mL | luminescence, ADCP reporter, 27.43484 ng/mL | luminescence, ADCP reporter, 82.30453 ng/mL | luminescence, ADCP reporter, 246.9136 ng/mL | luminescence, ADCP reporter, 740.7407 ng/mL | luminescence, ADCP reporter, 2,222.222 ng/mL | luminescence, ADCP reporter, 6,666.667 ng/mL | luminescence, ADCP reporter, 20,000 ng/mL
B3 | 48 | 54 | 80 | 64 | 98 | 85 | 128 | 403 | 455

biological target: T2, human MS4A4A; assay: FACS, U937-huMS4A4A, 5 ug/ml; remark: another data set of the same source
Description: as §1, §2

Binder | MFI
B3 | 41800
B1 | 24400
B4 | 15300
B5 | 17700
B14 | 11600
B6 | 16700
B7 | 9910
B8 | 12000
B15 | 10300
B9 | 10600
B2 | 8820
B16 | 10000
B10 | 12200
B17 | 10100
B18 | 12100
B11 | 11800
B19 | 11900
B12 | 12600
B13 | 12200

biological target: FcγRIIIa receptor (V158 variant) (UniProt P08637 17-254); assay: cell-based or functional assay
Sequence (P08637 other isoform, or with tags, fused parts or gaps mutant limits assumed): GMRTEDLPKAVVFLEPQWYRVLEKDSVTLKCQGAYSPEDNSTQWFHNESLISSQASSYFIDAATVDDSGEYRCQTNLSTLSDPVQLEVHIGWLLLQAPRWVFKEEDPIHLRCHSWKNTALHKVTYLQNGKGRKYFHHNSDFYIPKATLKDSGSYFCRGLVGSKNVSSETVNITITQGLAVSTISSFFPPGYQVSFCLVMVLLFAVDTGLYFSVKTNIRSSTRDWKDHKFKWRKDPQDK

Binder | luminescence, ADCC reporter, 3.048316 ng/mL | luminescence, ADCC reporter, 9.144947 ng/mL | luminescence, ADCC reporter, 27.43484 ng/mL | luminescence, ADCC reporter, 82.30453 ng/mL | luminescence, ADCC reporter, 246.9136 ng/mL | luminescence, ADCC reporter, 740.7407 ng/mL | luminescence, ADCC reporter, 2,222.222 ng/mL | luminescence, ADCC reporter, 6,666.667 ng/mL | luminescence, ADCC reporter, 20,000 ng/mL
B3 | 346 | 367 | 473 | 839 | 2060 | 4350 | 5130 | 4890 | 4400

biological target: T4, recombinant MS4A4A soluble polypeptide JS1; assay: ELISA, 1 ug/ml antibody
T4 construct: also called JS1.His; loop grafted antigen
Description: as §3

Binder | OD450
B1 | 0.127
B2 | 1.91

biological target: T3, recombinant MS4A4A soluble polypeptide …; assay: ELISA, 1 ug/ml antibody
Description: as §3

Binder | ELISA OD
B3 | 1.26
B1 | 0.128
B4 | 1.14
B5 | 0.184
B6 | 1.04
B7 | 0.944
B8 | 0.927
B9 | 0.893
B2 | 0.997
B10 | 0.928
B11 | 0.981
B12 | 1
B13 | 0.953

biological target: T3, recombinant MS4A4A soluble polypeptide …; assay: ELISA, 0.33 ug/ml antibody
Description: as §3

Binder | ELISA OD
B3 | 1.05
B1 | 0.103
B4 | 0.682
B5 | 0.11
B6 | 1.03
B7 | 0.848
B8 | 0.85
B9 | 0.812
B2 | 0.851
B10 | 0.873
B11 | 0.916
B12 | 0.94
B13 | 0.898

biological target: T3, recombinant MS4A4A soluble polypeptide …; assay: ELISA, 0.4 ug/ml antibody

Binder | OD450
B14 | 0.939
B6 | 0.977
B15 | 0.797
B2 | 0.821
B16 | 0.908
B17 | 0.852
B18 | 0.901
B19 | 0.907
B13 | 0.99
